According to patent publication US20220041724A1 (GRAND DECADE DEVELOPMENTS, published 2022):
Values belong to the binder of their own block, whether it stands above or below them.

Tests used:
[1] = target: T1, Recombinant mouse CTLA-4/human IgG1 chimera (R&D Systems) (mouse; human, UniProt P09793 36-162, limits assumed); assay: ELISA: mouse CTLA-4/human IgG1 chimera coated at 1 or 5 µg/mL; HEK293 conditioned medium with 9D9-scFv at 130 ng/mL; anti-mouse IgG-HRP, OD 450 nm
T1 construct: Bought reagent; also called recombinant mCTLA-4/Fc; recombinant CTLA4 protein; not shown: human IgG1 portion (Fc) of the bought chimera
Experimental: (§1) Plasmid encoded anti-CTLA4 scFv bound to recombinant CTLA4 protein. Transfection-derived secreted anti-CTLA4 (scFv) were evaluated for their binding capacity to CTLA-4. Recombinant mouse CTLA-4/human IgG1 chimera (R&D Systems) were immobilized in 96-well plates (1 or 5 μg/mL, or […]) for 18 hr at room temperature. Wells were washed three times with 0.1% Tween in PBS and blocked with 1% BSA in PBS. Conditioned medium from HEK293 cells transfected with 9H10-scFv (168 ng/mL) or 9D9-scFv (130 ng/mL) was added to the wells, and incubated for 2 h at room temperature. Wells were washed three times, and anti-mouse IgG-horseradish peroxidase (Jackson ImmunoResearch, 0.2 μg/mL) were added and incubated for 1.5 hours at room temperature. Wells were again washed three times, developed with HRP Substrate Reagent (R&D Systems) and stopped with Stop Solution, 2N sulfuric acid (R&D Systems). Optical density of each well was measured at 450 nm.

[2] = target: T1, Recombinant mouse CTLA-4/human IgG1 …; assay: ELISA: mouse CTLA-4/human IgG1 chimera coated at 1 or 5 µg/mL; HEK293 conditioned medium with 9H10-scFv at 168 ng/mL; anti-mouse IgG-HRP, OD 450 nm
Experimental: as §1

- binding result [1]: binds
B1: 9D9-scFv (Igκ-HA-9D9 VLC-Linker-9D9 VHC-Linker-mIgG1 Fc domain, anti-CTLA-4 scFv) (scFv)
scFv: YPYDVPDYAGAQPARSDIVMTQTTLSLPVSLGDQASISCRSSQSIVHSNGNTYLEWYLQKPGQSPKLLIYKVSNRFSGVPDRFSGSGSGTDFTLKISRVEAEDLGVYYCFQGSHVPYTFGGGTKLEIKRADAAPTVSGSGGGSGGGSGGGSEAKLQESGPVLVKPGASVKMSCKASGYTFTDYYMNWVKQSHGKSLEWIGVINPYNGDTSYNQKFKGKATLTVDKSSSTAYMELNSLTSEDSAVYYCARYYGSWFAYWGQGTLITVSTAKTTPPSVYPLAPVDSSGSGGCKPCICTVPEVSSVFIFPPKPKDVLTITLTPKVTCVVVDISKDDPEVQFSWFVDDVEVHTAQTQPREEQFNSTFRSVSELPIMHQDWLNGKEFKCRVNSAAFPAPIEKTISKTKGRPKAPQVYTIPPPKEQMAKDKVSLTCMITDFFPEDITVEWQWNGQPAENYKNTQPIMDTDGSYFVYSKLNVQKSNWEAGNTFTCSVLHEGLHNHHTEKSLSHSPGK
notes: scFv (VL-linker-VH) with an N-terminal HA tag, fused to a mouse IgG1 Fc domain; It was secreted into conditioned medium of transfected HEK293 cells; also called plasmid encoded anti-CTLA4 scFv

- binding result [2]: binds
B2: 9H10-scFv (Igκ-HA-9H10 VLC-Linker-9H10 VHC-Linker-mIgG1 Fc domain, anti-CTLA-4 scFv) (scFv)
scFv: YPYDVPDYAGAQPARSDIVMTQSPSSLAVSVGEKVTISCKSSQSLLYGSSHYLAWYQQKVGQSPKLLIYWASTRHTGIPDRFIGSGSGTDFTLSLSSVQAEDMADYFCQQYFSTPWTFGAGTRVEIKSGSGGGSGGGSGGGSQVQLLQSESELVKPGASVKLSCKTSGYTFTDYYIHWVKQKPGQGLEWIGLINPNNDGTNYNQKFQGKATLTADKSSSTAYMELNSLTFDDSVIYFCARASSRLRMARTTSDYYAMDYWGQGIQVTVSSVDSSGSGGCKPCICTVPEVSSVFIFPPKPKDVLTITLTPKVTCVVVDISKDDPEVQFSWFVDDVEVHTAQTQPREEQFNSTFRSVSELPIMHQDWLNGKEFKCRVNSAAFPAPIEKTISKTKGRPKAPQVYTIPPPKEQMAKDKVSLTCMITDFFPEDITVEWQWNGQPAENYKNTQPIMDTDGSYFVYSKLNVQKSNWEAGNTFTCSVLHEGLHNHHTEKSLSHSPGK
notes: as for B1
